Results on 1 protein are retold here after PMC4854415, “The Human Sodium-Glucose Cotransporter (hSGLT1) Is a Disulfide-Bridged Homodimer with a Re-Entrant C-Terminal Loop” (PLoS ONE, 2016).

The series deals with the molecule itself. The series can be described thus: SDS-PAGE without reducing agent and western blot; total membrane preparation of oocytes expressing myc-tagged hSGLT1, 7.5 or 10% polyacrylamide gel, absence of β-Mercaptoethanol, detected with α-c-myc. On the technique in general: A western blot detects proteins with antibodies after separation by electrophoresis.

B1: wt myc-tagged human sodium-glucose cotransporter 1 (hSGLT1) (natural protein, UniProt P13866 1-664, looked up)
chain: MDSSTWSPKTTAVTRPVETHELIRNAADISIIVIYFVVVMAVGLWAMFSTNRGTVGGFFLAGRSMVWWPIGASLFASNIGSGHFVGLAGTGAASGIAIGGFEWNALVLVVVLGWLFVPIYIKAGVVTMPEYLRKRFGGQRIQVYLSLLSLLLYIFTKISADIFSGAIFINLALGLNLYLAIFLLLAITALYTITGGLAAVIYTDTLQTVIMLVGSLILTGFAFHEVGGYDAFMEKYMKAIPTIVSDGNTTFQEKCYTPRADSFHIFRDPLTGDLPWPGFIFGMSILTLWYWCTDQVIVQRCLSAKNMSHVKGGCILCGYLKLMPMFIMVMPGMISRILYTEKIACVVPSECEKYCGTKVGCTNIAYPTLVVELMPNGLRGLMLSVMLASLMSSLTSIFNSASTLFTMDIYAKVRKRASEKELMIAGRLFILVLIGISIAWVPIVQSAQSGQLFDYIQSITSYLGPPIAAVFLLAIFWKRVNEPGAFWGLILGLLIGISRMITEFAYGTGSCMEPSNCPTIICGVHYLYFAIILFAISFITIVVISLLTKPIPDVHLYRLCWSLRNSKEERIDLDAEEENIQEGPKETIEIETQVPEKKKGIFRRAYDLFCGLEQHGAPKMTEEEEKAMKMKMTDTSEKPLWRTVLNVNGIILVTVAVFCHAYFA
notes: human sodium-glucose cotransporter 1 (hSGLT1), wild type; Dimer held by a disulfide bridge between the C355 residues of two molecules, by non-reducing western blot; also called wt hSGLT1; wtSGLT1; source: Xenopus laevis oocytes injected with mRNA, total membrane preparation
By stoichiometry N is commonly meant the number of molecules, sites or subunits per partner or assembly. Consider B1, for which the “stoichiometry N” value is 2.
